We go through 28 sequences from the supplement of paper PMC9170038.

This series has as its system MS2 coat protein. As to the kind of experiment: apparent KD of MS2 coat protein; designed switch direction (-1 OFF switch, 1 ON switch): -1; higher = weaker reporter binding. In short, it runs like this: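 Designed RNA switches with common flanks were transcribed on Illumina chips by stalled E. coli RNA polymerase and titrated with SNAP-549-labelled MS2 coat protein, from 0.7 or 1.5 nM doubling to 3 µM, in Tris-HCl pH 7.5 buffer with KCl, MgCl2, BSA, DTT, tRNA and Tween-20. Steps lasted 0.8–1.5 h (lowest) to 10–20 min (highest). Titrations ran without input, with 200 uM small-molecule ligand, or with an oligonucleotide input. Normalised cluster fluorescence was curve-fitted, and apparent KD is the per-design median over clusters.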

[1] abbreviates: Eterna round: R95, input ligand: FMN 200 uM.
[2] abbreviates: Eterna round: R95, input ligand: microRNA oligo, concentration not stated.
The mark [3] stands for this setting: Eterna round: R95, input ligand: none.
[4] abbreviates: input ligand: microRNA oligo, concentration not stated.

As for “AGGAAUGAAGGAUAUACAUGAGGAUCACCCAUGUAAAAAAAGUCGUUUAUUGUGUCAUGUAGAAGGUCAAGAAG [JR_Exclusion3_Sub002] (puzzle: Exclusion 3)”, the “apparent KD of MS2 coat protein” value runs as follows: under setting [1], 29.6 nM; under setting [2], 29.6 nM; under setting [3], 33 nM.

Consider “AGGUAACAUGAGGAUCACCCAUGUCAGGAUAUCAUAAAGAUUAGAUUAGAGAAGAGGUUGAGAAGGGACUAUAU [Excluse me! 17- Jieux - Exclusion 1] (puzzle: Exclusion 1)”, for which the “apparent KD of MS2 coat protein” value under setting [2] was found to be 41.9 nM.

On to “AGGUCUCGUGUCAGGAUAUAUUUUCUCUGAGCAAGGUAGAAGGGACAUGAGGAUCACCCAUGUCUGAGGAAAAU [Eternabot (L1) Solution 34] (Eterna round: R97, puzzle: Brourd's mod of Exclusion 4)”, for which the “apparent KD of MS2 coat protein” value is, setting by setting: (input ligand: FMN 200 uM) 24 nM; (input ligand: none) 19.1 nM.

Regarding “AGGUGGAAGCAGGAUAUGCUAGAAGUGUAGAAUGCAGAAGGGCUAACAUGAGGAUCACCCAUGUAAGAGGUGUA [JR_E6_Sub051] (puzzle: Exclusion 6)”, the “apparent KD of MS2 coat protein” value came out at 383 nM under setting [1], 200 nM under setting [2] and 236 nM under setting [3].

Turning to “AGGUGUAGAGGAUAUACUGCAAAGCACAUGAGGAUCACCCAUGUCCCUCUAUGGGAUUAUGUAGAAGGCUACACCA [Omei Ex5 C6] (Eterna round: R97, puzzle: Exclusion 5)”, the “apparent KD of MS2 coat protein” value worked out at 17.5 nM (input ligand: FMN 200 uM) and 20.2 nM (input ligand: none).

Take “AGGUGUAGAGGAUAUUUAUUCUUCCACAUGAGGAUCACCCAUGUCCUGGUCACCAAGGACGGAGAAGGCUACACCA [Omei Ex5 D24] (Eterna round: R97, puzzle: Exclusion 5)”: the “apparent KD of MS2 coat protein” value worked out at 57.4 nM (input ligand: FMN 200 uM) and 63.5 nM (input ligand: none).

On to “AGUAACAGAGGAUAUACUGUUUUAUGUAUUUAUUAUUUUAAACAUGAGGAUCACCCAUGUAGAAGGCUGAAUGA [JMF 98] (puzzle: Exclusion 2)”, for which the “apparent KD of MS2 coat protein” value under setting [2] amounted to 22.4 nM.

For the sequence “AGUAACAGAGGAUAUACUGUUUUAUGUGUUUAUUAUUUUAAACAUGAGGAUCACCCAUGUAGAAGGCUGAAUAA [JMF 82] (puzzle: Exclusion 2)”, the “apparent KD of MS2 coat protein” value under setting [2] came to 40.3 nM.

For the sequence “AGUAACUAUCACGAAAGUGAUAGUUACAACAGGUGAUAAACAUGAGGAUCACCCAUGUCCUCAUUUGCUCGUCUUAU [Sensor 3 - 11] (puzzle: Sensor v3, turn-off variant 2)”, the “apparent KD of MS2 coat protein” value under setting [1] was found to be 984 nM, the “apparent KD of MS2 coat protein” value under setting [2] was determined as 422 nM and the “apparent KD of MS2 coat protein” value under setting [3] turned out to be 527 nM.

For the sequence “AGUAACUAUCACGAAAGUGAUAGUUACAAUAGCAAGUGAACAUGAGGAUCACCCAUGUCCUCAUUUGCUCGUCUUAU [Sensor 3 - 20] (puzzle: Sensor v3, turn-off variant 2)”, the “apparent KD of MS2 coat protein” value by setting is: under setting [1], 16.1 nM; under setting [2], 632 nM; under setting [3], 13.6 nM.

In the case of “AGUACAAUCACGAAAGUGAUUGUACAAUAAGCUUGUGAAACAUGAGGAUCACCCAUGUCCUCAUAAGCUCGUCUUAU [Mat - Sensor v2 -ver2- JL mod - D69] (Eterna round: R96, puzzle: Sensor v2, turn-off variant 2)”, the “apparent KD of MS2 coat protein” value runs as follows: (input ligand: FMN 200 uM) 16.1 nM; under setting [4], 416 nM; (input ligand: none) 18.4 nM.

On to “AGUACCUGAGUACAAAGUAACAUGAGGAUCACCCAUGUAAAUGGGUGAGAACAAGCUCACCGUUCGUCUUAAAUAAA [JL turnoff v1 79] (Eterna round: R96, puzzle: Sensor v2, turn-off variant)”, for which the “apparent KD of MS2 coat protein” value reads like this: (input ligand: FMN 200 uM) 584 nM; under setting [4], 38.8 nM; (input ligand: none) 618 nM.

For the sequence “AGUACGAUGCGUGCUGACAUGCGUCGUGCAGCAGGUGAUACAUGAGGAUCACCCAUGUCCUCAUUUGCUCGUCUUGU [Mat - Sensor v3 - Turn-off var 2 - D18] (puzzle: Sensor v3, turn-off variant 2)”, the “apparent KD of MS2 coat protein” value amounted to 37.2 nM under setting [1], 257 nM under setting [2] and 36.1 nM under setting [3].

As for “AGUACUAACACGAAAGUGUUAGUACAAUAAGCUUGUGAAACAUGAGGAUCACCCAUGUCCUCCUAAGCUCGUCUUAU [salish99_TOv2_r3_049] (puzzle: Sensor v3, turn-off variant 2)”, the “apparent KD of MS2 coat protein” value under setting [1] worked out at 45.4 nM, the “apparent KD of MS2 coat protein” value under setting [2] was found to be 140 nM and the “apparent KD of MS2 coat protein” value under setting [3] came to 43.2 nM.

Turning to “AGUACUAACACGAGAGUGUUAGUACAAUAAGCUUGUGUUACAUGAGGAUCACCCAUGUCCUCAUAAGCUCGUCUUAU [Mat - Sensor v3 - Turn-off var 2 - D53] (puzzle: Sensor v3, turn-off variant 2)”, the “apparent KD of MS2 coat protein” value by setting is: under setting [1], 133 nM; under setting [2], 246 nM; under setting [3], 115 nM.

For the sequence “AGUACUAACACGAGAGUGUUAGUACUAUAAGCUUGUGUUACAUGAGGAUCACCCAUGUCCUCAUAGGCUCGUCUUAG [Mat - Sensor v3 - Turn-off var 2 - D83] (puzzle: Sensor v3, turn-off variant 2)”, the “apparent KD of MS2 coat protein” value reads like this: under setting [1], 80.4 nM; under setting [2], 42.7 nM; under setting [3], 87.3 nM.

As to “AGUACUAACACGGAAGUGUUAGUACAAUAAGCUUGUGAAACAUGAGGAUCACCCAUGUCCUCAUAAGCUCGUCUUAU [salish99_TOv2_r3_026] (puzzle: Sensor v3, turn-off variant 2)”, the “apparent KD of MS2 coat protein” value under setting [1] came to 11.1 nM, the “apparent KD of MS2 coat protein” value under setting [2] was 315 nM and the “apparent KD of MS2 coat protein” value under setting [3] was 18.1 nM.

Take “AGUACUAACACGUGUGUGUUAGUACAAUAAGCUUGUGAAACAUGAGGAUCACCCAUGUCCUCAUAAGCUCGUCUUAU [salish99_TOv2_r3_074] (Eterna round: R96, puzzle: Sensor v3, turn-off variant 2)”: the “apparent KD of MS2 coat protein” value worked out at 14.9 nM (input ligand: FMN 200 uM), 514 nM under setting [4] and 17.1 nM (input ligand: none).

Consider “AGUACUAACACGUGUGUGUUAGUACAAUAAGCUUGUGAAACAUGAGGAUCACCCAUGUCCUCAUAAGCUCGUCUUAU [salish99_TOv2_r3_074] (puzzle: Sensor v3, turn-off variant 2)”, for which the “apparent KD of MS2 coat protein” value under setting [1] worked out at 16.1 nM, the “apparent KD of MS2 coat protein” value under setting [2] was 813 nM and the “apparent KD of MS2 coat protein” value under setting [3] is 15 nM.

As to “AGUACUAACCCGAAAGUGUUAGUACAAUAAGCUUGUGAAACAUGAGGAUCACCCAUGUCCUCAUAAGCUCGUCUUAU [salish99_TOv2_r3_024] (puzzle: Sensor v3, turn-off variant 2)”, the “apparent KD of MS2 coat protein” value by setting is: under setting [1], 16.7 nM; under setting [2], 766 nM; under setting [3], 15.3 nM.

For “AGUACUAUGCGAGCUGACUUGCGUAGUGCAGCAGGUGAAACAUGAGGAUCACCCAUGUCCUCAUUUGCUCGUCUUAU [Mat - Sensor v3 - Turn-off var 2 - D2] (puzzle: Sensor v3, turn-off variant 2)”, the “apparent KD of MS2 coat protein” value runs as follows: under setting [1], 34.3 nM; under setting [2], 502 nM; under setting [3], 33.8 nM.

As to “AGUACUAUGCGAGCUGACUUGCGUAGUGCAGCAGGUGUUACAUGAGGAUCACCCAUGUCCUCAUUUGCUCGUCUUAU [Mat - Sensor v3 - Turn-off var 2 - D6] (puzzle: Sensor v3, turn-off variant 2)”, the “apparent KD of MS2 coat protein” value was determined as 271 nM under setting [1], 193 nM under setting [2] and 247 nM under setting [3].

Turning to “AGUAGGUCUACCUUGGUGGAUCUGCAUAAAGCAAGUGAAACAUGAGGAUCACCCAUGUCCUCAUUUGCUCGUCUUAU [JL turnoff v2 99.20] (puzzle: Sensor v3, turn-off variant 2)”, the “apparent KD of MS2 coat protein” value reads like this: under setting [1], 14.8 nM; under setting [2], 634 nM; under setting [3], 13 nM.

Consider “AGUAGUAGUAUCCGAUCCUACAUGAGGAUCACCCAUGUAGCUAGACGUGCACGCGAUGCUCGUCAGACUACCGGAUG [salish99_TOv1_r3_041] (puzzle: Sensor v3, turn-off variant 1)”, for which the “apparent KD of MS2 coat protein” value came to 23.7 nM under setting [1], 23 nM under setting [2] and 29.6 nM under setting [3].

In the case of “AGUAGUAGUAUCCGUUCUUACAUGAGGAUCACCCAUGUUUCUUGACGUGCACGCGAUGCUCGUCAGACUACCAGAUG [salish99_TOv1_r3_055] (puzzle: Sensor v3, turn-off variant 1)”, the “apparent KD of MS2 coat protein” value is, setting by setting: under setting [1], 68.5 nM; under setting [2], 88.4 nM; under setting [3], 91.5 nM.

As for “AGUAGUUGUUUCCGUUCUUACAUGAGGAUCACCCAUGUUUCUUGUCGUGCUCGCGUUGCUCGUCAGACUACCAGUUG [salish99_TOv1_r3_061] (puzzle: Sensor v3, turn-off variant 1)”, the “apparent KD of MS2 coat protein” value was determined as 62.4 nM under setting [1], 73.7 nM under setting [2] and 87.6 nM under setting [3].

Turning to “AGUAGUUGUUUCCGUUCUUACAUGAGGAUCACCCAUGUUUCUUGUCGUGCUCGCGUUGCUCGUCAGACUUCCUGUUG [salish99_TOv1_r3_063] (Eterna round: R96, puzzle: Sensor v3, turn-off variant 1)”, the “apparent KD of MS2 coat protein” value runs as follows: (input ligand: FMN 200 uM) 87.5 nM; under setting [4], 49.5 nM; (input ligand: none) 76.6 nM.

As to “AGUAGUUGUUUCCGUUCUUACAUGAGGAUCACCCAUGUUUCUUGUCGUGCUCGCGUUGCUCGUCAGACUUCCUGUUG [salish99_TOv1_r3_063] (puzzle: Sensor v3, turn-off variant 1)”, the “apparent KD of MS2 coat protein” value by setting is: under setting [1], 87.2 nM; under setting [2], 102 nM; under setting [3], 123 nM.
